According to the supplement of paper PMC10567573:

B1: WDR41 (parent)
chain: HVGELIIWDALDWTMQAYERNFWD

Variants of: B1
Assay: protein stability index of a GFP-peptide fusion (GPS, HEK-293T) (PSI 1-6); higher = more stable
Conditions: c terminus: a fixed tail appended
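Further: lentivirally expressed fusions sorted by FACS into six bins by GFP to DsRed ratio, PSI derived from sequencing read proportions per bin multiplied by bin number.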

| Variant | protein stability index |
| --- | --- |
| HVGELIIWDALDWTMIAYERNFWD | 2.45 |
| HVGELIIWDALDWTMCAYERNFWD | 2.77 |
| HVGELIIWDALDWTMMAYERNFWD | 2.63 |
| HVGELIIWDALDWTMQAYIRNFWD | 2.09 |
| HVGELIIWDALDWTMQAYVRNFWD | 1.87 |
| HVGELIIWDALDWTMQAYQRNFWD | 3.24 |
| HVGELIIWDALDWTMQAYPRNFWD | 1.72 |
| HVGELIIWDALDWTMQAYHRNFWD | 2.77 |
| HVGELIIWDALDWTMQAYTRNFWD | 1.44 |
| HVGELIIWDALDWTMQAYARNFWD | 1.64 |
| HVGELIIWDALDWTMQAYERNFWE | 3.24 |
| HVGELIIWDALDWTMQAYERNFWK | 1.4 |
| HVGELIIWDALDWTMQAYERNFWI | 3.06 |
| HVGELIIWDGLDWTMQAYERNFWD | 1.95 |
| HVGELIIWDKLDWTMQAYERNFWD | 1.09 |
| HVGELIIWDSLDWTMQAYERNFWD | 1.63 |
| HVGELIIWDPLDWTMQAYERNFWD | 1.5 |
| HVGELIIWDDLDWTMQAYERNFWD | 1.6 |
| HPGELIIWDALDWTMQAYERNFWD | 1.54 |
| HLGELIIWDALDWTMQAYERNFWD | 3.8 |
| HHGELIIWDALDWTMQAYERNFWD | 2.44 |
| HEGELIIWDALDWTMQAYERNFWD | 1.51 |
| HKGELIIWDALDWTMQAYERNFWD | 2.35 |
| HQGELIIWDALDWTMQAYERNFWD | 2.35 |

| Variant | protein stability index |
| --- | --- |
| HAGELIIWDALDWTMQAYERNFWD | 1.58 |
| HMGELIIWDALDWTMQAYERNFWD | 2.59 |
| HGGELIIWDALDWTMQAYERNFWD | 1.65 |
| HTGELIIWDALDWTMQAYERNFWD | 1.92 |
| HNGELIIWDALDWTMQAYERNFWD | 1.48 |
| HFGELIIWDALDWTMQAYERNFWD | 2.69 |
| HSGELIIWDALDWTMQAYERNFWD | 2.47 |
| HVGELIIWDALDWTMQAYEGNFWD | 1.75 |
| HVGELIIWDALDWTMQAYECNFWD | 1.24 |
| HVGELIIWDALDWTMQAYESNFWD | 1.56 |
| HVGELIIWDALDWTMQAYETNFWD | 3.97 |
| HVGELIIWDALDWTMQAYENNFWD | 2.98 |
| HVGELIIWDALDWTMQAYEENFWD | 1.46 |
| HVGELIIWDALDWTMQARERNFWD | 2.81 |
| HVGELIIWDALDWTMQANERNFWD | 2.18 |
| HVGELIIWDALDWTMQAEERNFWD | 1.12 |
| HVGELIIWDALDWTMQAKERNFWD | 2.17 |
| HVGELIIWDALDWTMQAHERNFWD | 1.6 |
| HVGELIIWDALDWTMQAAERNFWD | 3.71 |
| HVGVLIIWDALDWTMQAYERNFWD | 3.53 |
| HVGQLIIWDALDWTMQAYERNFWD | 2.46 |
| HVGPLIIWDALDWTMQAYERNFWD | 1.81 |
| HVGKLIIWDALDWTMQAYERNFWD | 1.84 |
| HVGYLIIWDALDWTMQAYERNFWD | 3.22 |

| Variant | protein stability index |
| --- | --- |
| HVGGLIIWDALDWTMQAYERNFWD | 1.85 |
| HVGNLIIWDALDWTMQAYERNFWD | 2.42 |
| HVGMLIIWDALDWTMQAYERNFWD | 2.15 |
| HVGDLIIWDALDWTMQAYERNFWD | 1.86 |
| HVGFLIIWDALDWTMQAYERNFWD | 3.77 |
| HVGEAIIWDALDWTMQAYERNFWD | 1.95 |
| HVGEYIIWDALDWTMQAYERNFWD | 3.11 |
| HVGEDIIWDALDWTMQAYERNFWD | 2.17 |
| HVGENIIWDALDWTMQAYERNFWD | 1.93 |
| HVGEQIIWDALDWTMQAYERNFWD | 2.13 |
| HVGEGIIWDALDWTMQAYERNFWD | 1.92 |
| HVGETIIWDALDWTMQAYERNFWD | 1.94 |
| HVGEHIIWDALDWTMQAYERNFWD | 1.56 |
| HVGESIIWDALDWTMQAYERNFWD | 1.47 |
| HVGEMIIWDALDWTMQAYERNFWD | 1.97 |
| HVGEKIIWDALDWTMQAYERNFWD | 2.21 |
| HVGERIIWDALDWTMQAYERNFWD | 1.5 |
| HVGELIIWDALDWTTQAYERNFWD | 1.05 |
| HVGELIIWDALDWTDQAYERNFWD | 1.76 |
| HVGELIIWDALDWTKQAYERNFWD | 3.06 |
| HVGELIIWDALDWTQQAYERNFWD | 2.44 |
| HVGELIIWDALDWTGQAYERNFWD | 1.06 |
| HVGELIIWDALDWTSQAYERNFWD | 1.88 |
| HVGELIIWDALDNTMQAYERNFWD | 1.69 |

| Variant | protein stability index |
| --- | --- |
| HVGELIIWDALDCTMQAYERNFWD | 2.51 |
| HVGELIIWDALDQTMQAYERNFWD | 2.21 |
| HVGELIIWDALDPTMQAYERNFWD | 1.52 |
| HVGELIIWDALDDTMQAYERNFWD | 2.07 |
| HVGELIIWDALDHTMQAYERNFWD | 2.04 |
| HVGELIIWDALDKTMQAYERNFWD | 2.37 |
| HVGELIIWDALDYTMQAYERNFWD | 2.84 |
| TVGELIIWDALDWTMQAYERNFWD | 2.01 |
| SVGELIIWDALDWTMQAYERNFWD | 3.37 |
| EVGELIIWDALDWTMQAYERNFWD | 1.27 |
| RVGELIIWDALDWTMQAYERNFWD | 1.58 |
| KVGELIIWDALDWTMQAYERNFWD | 2.73 |
| YVGELIIWDALDWTMQAYERNFWD | 2.18 |
| LVGELIIWDALDWTMQAYERNFWD | 2.13 |
| QVGELIIWDALDWTMQAYERNFWD | 1.9 |
| NVGELIIWDALDWTMQAYERNFWD | 1.48 |
| HVGELIIWDALDWTMQAYERNFED | 1.72 |
| HVGELIIWDALDWTMQAYERNFPD | 1.45 |
| HVGELIIWDALDWTMQAYERNFID | 2.83 |
| HVGELIIWDALDWTMQAYERNFCD | 1.71 |
| HVGELIIWDALDWTMQAYERNFSD | 1.82 |
| HVGELIIWDALDWTMQAYERNFDD | 1.89 |
